{"source": "paper PMC6212565", "about": "“Human antibodies targeting Zika virus NS1 provide protection against disease in a mouse model” (Nature Communications, 2018)", "binders": {"B1": {"name": "AA12 LALAPG (antibody, V domains shown)", "VH": "EVQLVESGGGLIQPGGSLRLSCAASGFTVSSNYMSWVRQAPGKGLEWVSVIYSGGSTYYADSVKGRFTISRDNSKNTLYLQMNSLRAEDTAVYYCARDRRGFDYWGQGTMVTVSS", "VL": "DIQMTQSPLSLSASVGDRVTITCRTSQSISSYLNWYQQKPGKAPKLLIYAASSLQSGVPSRFSGSGSGTDFTLTISSLQPEDFATYYCQQTYSTPLTFGGGTKVEIK", "notes": "also called mutated form of AA12; mutant AA12 mAb"}}, "target": "T1, recombinant NS1 protein from Zika virus MR766 (Zika virus MR766 (Rhesus/1947/Uganda))", "T1 construct": "also called MR766 NS1; NS1 from MR766; source: Expi293 cells transfected with pCAGGS-MR766-NS1, purified from the supernatant (Ni-NTA)", "test": "ELISA; plates coated with recombinant ZIKV NS1 at 2 μg per mL in pH 9.41 carbonate buffer overnight at 4 °C; mAbs from 10 μg per mL, serially diluted 3-fold, 2 h at room temperature; detected with HRP-conjugated goat anti-human IgG", "conditions": "both partners purified", "data": [{"binder": "B1", "values": [{"measurement": "binding result", "value": "binds"}]}]}
